{"source": "a protein production outcome set (Wang et al. 2014)", "experiment": "label from the status in PepcDB records"}
{"sequence": "GMIDGHHHLTQSFAKSLAYGEPSEIFKRIWVPLESNLNEQFVYLCTKLAALESLRGGFTTVCDAGTRSEIGMQLMVRALEETGLRCVLSLICNDGRAHSTLELRQNILENAQIFIKSYKQHKNVHPSLAISIPEVASDDMLYEVSKLCANSNIIFQVHVNEHLASVERSIIQQGMRPLEHLAKVGALGPQTLIAHATMLTPSELLLLQRTDTAVSYNPVASQWKGNAVASAHLMHELNIRFALGTDATRADGFRLLDAAEATQKLIFGIPTGDCSTGGGWMWLDHATTAGAEAVGLSQL", "values": [{"measurement": "protein production", "value": "failed"}]}
{"sequence": "MHTFTASSSLGASADALFTWHSRPGAFERLTPPWAPVRLQSFEGIEAGDRAVLRIGPGPLAVRWVAEHYGVEPGRQFCDRQVQGPFSHWEHTHRFTPADDDTGGATLTDRIEYEPPGGALGRQAAPWLEAELRRQFAYRHRITRRDLSLHQQYNPDDRSLTIAVSGASGLVGSSLVPFLTTGGHTVKRLTRSGPTGADEILWDPRTDRVEADKLEGIDAVIHLAGENVFGPWTPAKKQRIYSSRADGTRLLAEALAGLDDPPEVLVSSSAVGYYGDHGADRITEESAPRDAGFLGEVCEAWEAAAEPAAAAGIRTVQMRTGIVLTPAGGALRLMLPAFWLGLGGRVGGRHQYFPWITLDDVIGGIYHALWTDALEGPVNLTAPRPVTMQAYTDTLADVLHRPAFLNVPSSVVRTVGGEMADEMLLTSARAVPQRLQDTGYDFGASALEDGLRHVLGRTAD", "values": [{"measurement": "protein production", "value": "failed"}]}
{"sequence": "MNLDTPLADGLERAKRFEQGLQQVVLGQERPIRLLTLAVFARGHALLEGGVGVGKTTLLRAVARGIGGDYERIEGTIDLMPNDLVYYTYLDEQGRPGVAPGPLLKHGEQLSIFFFNEINRARPQVHSLLLRVMAERSVSAFNREYRFPYLQVFADRNRVEKEETFELPAAARDRFMLEIAIEPPADPAHIDQILFDPRFYDPDRLVASAPADTLSFRELNGIAEALQGGIHVSARLRSYVQDLWRATRRPEDFGIALHEADSGDMIEAGSSPRGMSYLVRLARVQAWLSGRDRVEPEDVQYVFAPAVGHRIFLKPVYEYRRAELIPELVGKLIRRIAAPLEHHHHHH", "values": [{"measurement": "protein production", "value": "failed"}]}
{"sequence": "MGLTDIFLNLLLFVYPAVFIIYQIILYEISARKQINQEALKYSNLPVLSIIVPIKNEEISVIQGLLDNLSNLIWDKKKLEIIIVSDDNEDYFTKIINTVKVPKDLTVYFYRREKKLGYKSGALQYGFEKATGDLILTIDVDSRLPPNALINAYEKMQSNTCDAIVFQWNGYSSNQYSTLAKGMVVSTLFASKALFEGKEKLKLKIYPVGSGTMFSREALRVVNGWDYRLVQDDLEIGTRLIYNGKNVCASGIPIYVEVPDNFYSFYVQQTRWAMGSAEVLRNRLKYIIKSKISFTQRMDLIIYLLQYTPVIVTFFISTLLSLMLPFRIGHDPLNSPALLFWLVSLGLYASLLLSLALKLGLNLKDSLMGIGRLTAFTVSISPFIVFNFFKGLLKSGNTYVITPKGTVKKTNKLLRIIAIIGVFGLLYLLSSILYIYEGYYVTGIWLLYYSSAYLYTMLLYYKEL", "values": [{"measurement": "protein production", "value": "failed"}]}
{"sequence": "QVKRQTRRVASATYMVSLLDSQIDSPATLFIDEQALEAAKRRSYQRGVLEGSEMSRVFSWMRPNDLIWTYWINNYLLGKSPPPFDILYWNNDTTRLPAALHGDLLDFFKHNPLSHAGGLEVCGTPIDLQKVTVDSFSVAGINDHITPWDSVYRSTLLLGGDRRFVLANSGHVQSILNP", "values": [{"measurement": "protein production", "value": "not failed"}]}
{"sequence": "MDFQHRPGGKTGSGGVASSSESNRDRRERLRQLALETIDINKDPYFMKNHLGSYECKLCLTLHNNEGSYLAHTQGKKHQTNLARRAAKEAKEAPAQPAPEKVKVEVKKFVKIGRPGYKVTKQRDSEMGQQSLLFQIDYPEIAEGIMPRHRFMSAYEQRIEPPDRRWQYLLMAAEPYETIAFKVPSREIDKAEGKFWTHWNRETKQFFLQFHFKMEKPPAPPSLPAGPPGVKRPPPPLMNGLPPRPPLPESLPPPPPGGLPLPPMPPTGPAPSGPPGPPQLPPPAPGVHPPAPVVHPPASGVHPPAPGVHPPAPGVHPPAPGVHPPTSGVHPPAPGVHPPAPGVHPPAPGVHPPAPGVHPPAPGVHPPPSAGVHPQAPGVHPAAPAVHPQAPGVHPPAPGMHPQAPGVHPQPPGVHPSAPGVHPQPPGVHPSNPGVHPPTPMPPMLRPPLPSEGPGNIPPPPPTN", "values": [{"measurement": "protein production", "value": "failed"}]}
{"sequence": "MSEDNFDDEFDGSLPSGPRHPMARRFRGYLPVVVDVETGGFNSATDALLEIAATTVGMDEKGFLFPEHTYFFRIEPFEGANIEPAALEFTGIKLDHPLRMAVQEEAALTEIFRGIRKALKANGCKRAILVGHNSSFDLGFLNAAVARTGIKRNPFHPFSSFDTATLAGLAYGQTVLAKACQAAGMEFDNREAHSARYDTEKTAELFCGIVNRWKEMGGWMDDDD", "values": [{"measurement": "protein production", "value": "not failed"}]}
{"sequence": "MPKKRENRGRRKGDKGHVGYISCDQCGARVPEDKAVCVTKMYSPVDASLASELEKKGAIIARYPVTKCYCVNCAVFLGIIKIRAENERKQKARLRLEHHHHHH", "values": [{"measurement": "protein production", "value": "failed"}]}
{"sequence": "MALAGLLLGSALASSARAQSSDAAKPELEDALAVVDSLRRAGAFPAAQERLQSLREQHPERVPVLWRLVYTYADLGQSTDEENVRAQYYNNALNVAKAGLAADSTSARAHLAMAVAQGRAALDAGTRERIERSRAVKRHADRALAIDSTLDGAYHTRGRWHREVEDIGFVQRAIVKTVYGGLPESSIDQAVRDFRRALELRDRIFHHLELGKTYLQMDRPDAARRELRAVLDMPAEEPFDPRYKDEARRLLDDLD", "values": [{"measurement": "protein production", "value": "failed"}]}
{"sequence": "MIFLIFSFIVLLIFGLANVYIYKRLIKKITLFKYFYKIFSFIFIVLFLAQAVFLIFRRDEYLSDTWYEILAMFYAPTYCLFFMTLAWDFVKLILALMGKRDKTYNLILRLIFELSLIVLSVFLIYVSINNALKTPEVKSVDVEIPNLKKDLKIVMLTDIHLGKNLHENFLDKLITKVNLQSPDMVVIVGDLIDTNPKDLKNYISKLNDFNSTYGTFYALGNHEYYHGINEVLDLLRKHTNMKILVNQNLDLGFINIAGLGDLAGLDRGLYAPDLARIKVDLNTSKASILLTHQPKTALLYDLSDFDLVLSGHTHGGQIFPFMFLVKLQQGFVHGLYDLGEKTKLYVSSGAGFWGPSLRVFAPSEIVILNLKGKK", "values": [{"measurement": "protein production", "value": "failed"}]}
{"sequence": "MAANGVRRALQASSSSGKILFGRSSAATSASKIGKSAGIAFGNGSSSSTRPSLRRLTFSRVPVELSAGISLIPLHSVTASALLTSLLSLSNQNWSCLSEGKFFTCVHDLCLELKLILNFCFQTRSKCSLNW", "values": [{"measurement": "protein production", "value": "failed"}]}
{"sequence": "MDWAQLLPSMKTRTGVATSPPPARSFYCHPSARKNPLHLHLITDAVARNILETLFRTWMVPAVVVSFYDAEELKPLVSWIPNNHYSGLYGLMKLVLPSILPPSLARVIVLDTDVTFSSDIVELWALFDHFSDKQVVGLVENQSDWYLGNLWKNHRPWPALGRGFNTGVILLWLDRLQQTGWEQMWKVTAKRELLTLMATSLADQDIFNAVIKEHPHLVHPLPCVWNVQLSDHTRAERCYLEAADLKVIHWNSPKKLRVKNKHAEFFRNLHLTFLGYDGKLLRRELFGCPNQFPPGAEQLQQALTQLDEEEPCFEFRQQQLTVHRVHITFLPHQPPPPQPHDVTLVAQLSMDRLQMLEALCRHWPGPMSLALYLTDEEAQQFLHFVETSPVLSMRKDVAYHVVYRDGPLYPVNQLRNVALAQALTPYVFLSDIDFLPAYSLYDYLRASIEQLELDSRRKTALVVPAFETLHYRFSFPNSKAELLTLLDAGSLHTFRYHEWPQGHSSTDYSRWREAQAPYSVQWSADYEPYVVVPRDCPRYDPRFVGFGWNKVAHIIELDAQEYEFLVLPEAFSIHLPHAPSLDISRFRSSPTYRNCLQALKEEFHQDLSRRYGSAALKYLTALQQARSRA", "values": [{"measurement": "protein production", "value": "failed"}]}
{"sequence": "MKLETIDYRAADSAKRFVESLRETGFGVLSNHPIDKELVERIYTEWQAFFNSEAKNEFMFNRETHDGFFPASISETAKGHTVKDIKEYYHVYPWGRIPDSLRANILAYYEKANTLASELLEWIETYSPDEIKAKFSIPLPEMIANSHKTLLRILHYPPMTGDEEMGAIRAAAHEDINLITVLPTANEPGLQVKAKDGSWLDVPSDFGNIIINIGDMLQEASDGYFPSTSHRVINPEGTDKTKSRISLPLFLHPHPSVVLSERYTADSYLMERLRELGVL", "values": [{"measurement": "protein production", "value": "not failed"}]}
{"sequence": "VACKPKEKPSSATSLTDDALMDTVQRRTFNYFWDAAEPNSGLARERYHMDGEYPAGGPEIVTSGGSGFGIMAILAGIDRGYVSREEGLRRMEKIVGFLEKADRFKGAYPHWWNGETGHVQPFGQKDNGGDLVETAFLMQGLLAVHQYYAEGSAEEKKLAGRIDKLWREVDWNWYRHGGQNVLYWHWSPEYGWEMNFPVHGYNECLIMYILAAASPTHGVPAAVYHEGWAQNGAIVSPHKVEGIELHLRYQGGEAGPLFWAQYSFLGLDPVGLKDEYCPSYFNEMRNLTLVNREYCIRNPKHYKGYGPDCWGLTASYSVDGYAAHGPLERDDRGVISPTAALSSIVYTPDQSLQVMHHLYEMGDKVFGPYGFYDAFSETADWYPKRYLAIDQGPIAVMIENYRTGLLWKLFMSHPDVQNGLKKLGFNVKK", "values": [{"measurement": "protein production", "value": "not failed"}]}
{"sequence": "MSAKSKQYFNIFVFIISLIFFDQLSKYLVAKYVKLGSIYFSFFDDFFRIIHVRNTGILFSMGSNIHYSLKKIFFLAMPIFILIFVFYLSLKERNCIARISLLLIFSGGVGNVIDRLFRPSGVVDFLDLKFYGIFGLDRWPTFNFADSYVVIGMILFLVYDFFIKRKVLNK", "values": [{"measurement": "protein production", "value": "failed"}]}
{"sequence": "MRAAFRTLGCKVNQVETEALLGFLKALEPEVVPLEAGGADLVVINSCAVTTTAEADTRKEVRRARRYNPHAFIVVTGCYAELAPEVLKELGADAVVPNARKAELPRVILERFGLPSDPITTPPNEFWGAGERGLLNSRVRAFLKVQDGCQAGCAYCIIPRLRGKERHRDHREALAEAEALLRMGIKEIVLTGVRLGSYKGHPRGLAGLVEDLYHLGAKVRLSSIEPEDTGEDLLKVIGRYAPEVRPHLHLSLQTGSDRLLKLMGRRYDKAYYRELVQRAYDLIPGFALTTDVIAGLPTETEEEHRETLAFLEELRPTRVHAFTYTPRPKTRAASMPQVPPEVRKRRTKELIALAQRLAEERIRPRLGERVEVLVERVQGGEALGHTPDYYEARLEGEARPGETVWARVHGVEGYVLLGRVEGVKEGARGPLELPVRLEHHHHHH", "values": [{"measurement": "protein production", "value": "failed"}]}
{"sequence": "MCASKRSFFMSNSKFNVRLLTEIAFMAALAFIISLIPNTVYGWIIVEIACIPILILSFRRGLTAGLVGGLIWGILSMITGHAYILTLSQAFLEYLIAPVSLGIAGLFRQKTASLKLVPVLLGTFVAVLLKYFFHFIAGIIFWSQYAWKGWGAVAYSLAVNGISAILTAIAAFVILIIFVKKFPKLFIYSNY", "values": [{"measurement": "protein production", "value": "failed"}]}
{"sequence": "QTPVYLDTSKPIEERVKDALSRMTLEEKVKMTHAQSKFSSPGVPRLGIPEVWATDGPHGIRPEVLWDEWDQAGWTNDSCIAYPALTCLSATWNPEMSYLYGKSIGEEARYRKKDILLGPGVNIYRTPLNGRNFEYMGEDPYLSSMMVVPYIKGVQENGVAACVKHYALNNQEFNRHTTNVHLSDRALYEIYLPAFKAAVQEGGAWAIMGAYNLYSFSEDTDSGKLYKTQHACHNKRLLQDILRKEWGFDGVVVSDWGGVHDTFQAISNGLDMEFGSWTNGLSAGTRNAYDNYYLAHPYLKLIQDGTVGTKELDEKVSNILRLIFRTSMNPH", "values": [{"measurement": "protein production", "value": "failed"}]}
{"sequence": "MMLLLPEFGYVSLLLAVCVGVATALLTFSGYTLRWSGTYRLARCWTLVLFGLVLFAFVALTLSVVQDDFSVNYVAQHSHRDLPLGLKIAAVWGGHEGSLLLWLLCLSGWSATFACRYRKAMSDLFPLTLAMLAVIATALLVFIVFFSDPFVRLFPPAVAGRDLNPMLQHIGLILHPPLLYLGYGGLTVSAALALAALIHGEFTAPAAWICWRWTLPAWSLLTLGIILGSWWAYNELGWGGWWFWDPVENASLLPWLTASALLHSLSVTRMRGIFRHWSLILALLTFILCLLGTLIVRSGILVSVHAFALEHDRAVPLFILFACLSMAALAVYGWRAQLVHSAARFSGWSREMAILLVLLLFSAVALVVLLGTLYPMIYGLAGWGKISVGAPYFNRVLLPFAGLMLLLIGVAAGGYWKRSTRWPVWHLGVTLAVGVVTALVLWPYGYDVALASGLIGWVMAAQWLQPLLALRQQLPALLAHTGVVLFALGIAFSAGSKQEISANVGQGEQVTLGDYQFHFLQLDLVAAQNYTAEQAVIAIYRGDSPIARVIPERRYYNARKQQMIEPGIAWGPIREWYAVMGEKTGENRYAMRFYVQTGVRWVWGGGMLMVAGALLGWFRGRRVYD", "values": [{"measurement": "protein production", "value": "failed"}]}
